Earlier results, collected in paper PMC10171305.
Like-named read-outs stand apart in the source and are kept apart here.

What was measured:
Spike (SARS-CoV-2) [1] = target: Spike (SARS-CoV-2) (UniProt P0DTC2)
Spike (SARS-CoV-2) [2] = target: Spike (SARS-CoV-2) (UniProt P0DTC2); remark: listed apart in the source

Chain of ASGR1 (P07306 whole entry): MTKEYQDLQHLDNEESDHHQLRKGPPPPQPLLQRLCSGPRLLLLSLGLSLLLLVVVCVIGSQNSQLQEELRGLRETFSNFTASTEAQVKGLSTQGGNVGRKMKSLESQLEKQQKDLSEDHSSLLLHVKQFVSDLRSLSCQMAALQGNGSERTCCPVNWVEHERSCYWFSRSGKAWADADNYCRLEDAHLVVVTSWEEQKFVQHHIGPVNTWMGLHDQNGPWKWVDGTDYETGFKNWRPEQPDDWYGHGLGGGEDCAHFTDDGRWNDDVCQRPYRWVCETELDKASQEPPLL
Chain of KREMEN1 (Q96MU8 20-392): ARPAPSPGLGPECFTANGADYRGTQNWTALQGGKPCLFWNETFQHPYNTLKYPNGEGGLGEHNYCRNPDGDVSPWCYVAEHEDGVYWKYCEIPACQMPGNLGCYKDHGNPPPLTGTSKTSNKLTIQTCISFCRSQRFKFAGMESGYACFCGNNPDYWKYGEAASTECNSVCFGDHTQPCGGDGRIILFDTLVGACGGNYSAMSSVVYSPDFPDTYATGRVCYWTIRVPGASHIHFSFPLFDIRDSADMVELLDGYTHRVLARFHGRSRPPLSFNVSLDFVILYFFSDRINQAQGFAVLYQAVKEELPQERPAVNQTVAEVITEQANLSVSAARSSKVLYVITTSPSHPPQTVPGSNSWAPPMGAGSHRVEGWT

Substance	Kd (Spike (SARS-CoV-2) [1])	Kd (Spike (SARS-CoV-2) [2])
ASGR1 (from UniProt P07306)	94.8 nM	
KREMEN1 (from UniProt Q96MU8)		19.3 nM
